Source: the nanobody polyreactivity screen of Harvey et al. (2022)

Experiment: yeast display, Sf9 membrane polyspecificity reagent, FACS + sequencing; frameworks hold sequencing errors
Method in brief: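 Nanobodies came from a synthetic yeast display library in Saccharomyces cerevisiae BJ5465, induced with galactose for 36–48 hours and stained for 1 hour at 4 °C with 10% biotinylated, detergent-solubilized Sf9 membrane reagent. Cells were enriched on streptavidin microbeads and then FACS-sorted, with low and high (top ~1%) gates set on anti-HA fluorescence for expression and streptavidin fluorescence for reagent binding. Each polyreactivity label reflects the gate a clone came from. Genes were amplified by colony PCR, sequenced by MiSeq 2 × 250 and filtered by CDR length.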

Row | Sequence | polyreactivity (PSR sort gate)
1 | QVQLVESRGGLVQAGGSLRLSCAASGSICYRYAMGWYRQAPGKERELVAAISYSGGSTYYADSVKGRFTISRDNAKNTVYLQMKSLKPEDTAVYYCAKDYPPPISDYSRYYGYGYWGQGTQVTVSS | low polyreactivity
2 | QVQLVESRGGLVQAGGSLRLSCAASGSIFPYNAMGWYRQAPGKEREFVAAINLSGGSTNYADSVKGRFTISRDNAKNTVYLQMNSLKPEDTAVYYCNAPVDYFWPLNFDYWGQGTQVTVSS | low polyreactivity
3 | QVQLVESRGGLVQAGGSLRLSCAASGSIFYRYAMGWYRPAPWKERELVAAIRRGGSTNYADSVKGRFTISRDNAKNTVYLQMNSLKPEDTAVYYCAAGRFTYAAQRYEYWGQGTQVTVSS | high polyreactivity
4 | QVQLVESRGGLVQAGGSLRLSCAASGSTCFTNDMGWYRQAPGTERELVASISPSTGSTYYADSVKGRVTISRDNAKNTVSLQMNSLKPDDTAVYYCAADEWYYSYNDGNLYDYWGQGTQVTVSS | low polyreactivity
5 | QVQLVESRGGLVQAGGSLRLSCAASGSTFFRYAMGWYRQAPGKERELVAAITDSDGSTYYADSVKGRFTISRDNAKNTVYLQMNSLKPEDTAVYYCAAAHPDGWTVYNPQGGAWYDYWGQGSQVTVSS | low polyreactivity
6 | QVQLVESRGGLVQAGGSLRLSCAASGSTFKPNAMGWYRPAPGKERELVAAITSGSTYYADSVKGRFTISRDNAKNTVYLQMNSLKPEDTAVYYCATSFRGKSPYRNSGSYYYWGQGTQVTVSS | high polyreactivity
7 | QVQLVESRGGLVQAGGSLRLSCAASGSTFRTYAMGWYRQAPGKERELVADITWRGGSTYYADSVKGRFTISRDNAKNTVYLQMNSLKPEDTAVYYCATDRGPEVVLYDYWGQGTQVTVSS | low polyreactivity
8 | QVQLVESRGGLVQAGGSLRLSCAASGSTFSVYAMGWYRQAPGKERELVADITRGGSTYADSVTGRFTISRDNAKNTVYLQMNSLKPEDTAVDYCARAEVTPYPLYWSTREYDYWGQGTQVTVSS | low polyreactivity
9 | QVQLVESRGGLVQAGGSLRLSCAASGSTFYAYAMGWYRQAPGKERDLVAAISSSGGSTYYADSVKGRFTISRDNAKNTVYLQMNSLKTEDTAVYYCAAYDSVQKYWILGFDYWGQGTQVTVSS | low polyreactivity
10 | QVQLVESRGGLVQAGGSLRLSCAASGSTILQYAMGWYRQAPGNERELVAAIRFSTGTTYYADSVKGRFTISRDTANNTVYLQMNSLKPEDTAVYYCAALARTRGRKYGYWGHGTQVTVSS | high polyreactivity
11 | QVQLVESRGGLVQAGGSLRLSCAASGSTSRTYAMGWYRQAPGKEMELVAAISSSGGRTYYADSVKGRFTISRDNAKNTVYLLMNSLKPEDTAVYYCNARTYSYRGYNYWGQGTQVTVSS | high polyreactivity
12 | QVQLVESRGGLVQAGGSLRLSCSASGLTIWRYAMGWYRHEPGKEWEFVATISQNGGRTYYADSVKGRFTISRDNAKNTVYLQMNSLKPEDTAVYYCAADDWRWGYDYWGQGTQVTVSS | high polyreactivity
13 | QVQLVESRGGLVQAGGSLRLSFAASGSNFGAYAMVWYRQAPGKERELVAGITGSGGTTYYADSVKGRFTISRDNGKNTVYLQMNSLTPEDTAVYDCAKRVWVRYYYWGQGTQVTVSS | high polyreactivity
14 | QVQLVESRGGLVQAGGSLRLSFPASGSTFYKYAKGWYRQAPGKERELVASISRRAGSTYYADSVKGRFTISRDNAKNTVDVQMTSLKPEDTAVYYCAAVGRYDRVFDYDYWGQGTQVTVSS | high polyreactivity
15 | QVQLVESRGGLVQAGRSLRLSCAASGITFYSYAMGWYRQEPGKERELVAAITLTGGTTYYADSVKGRFTISRDNAKNTVYLQMNSLKPEDTAVYYCAAQYWWWSRFEYDSCGQGTQVTVSS | low polyreactivity
16 | QVQLVESRGRLVQAGGSLRLSCAASGSIFVGNAMGWYRQAPGKERELVAAISSGGSTYYADSVKGRFTISRDNAKNTVYLQMNSLKPEDTAVYFGAAYYVRRYSSRPKDDYWGQGTQVSVSS | low polyreactivity
17 | QVQLVESRGRLVQAGGSLRLSCAASGYTFNHNAMGWYRPAPGKETELVAVITPRAGSTYYADSVKGRFTISRDNAKNTVYLQKNSLKPEDSAVYYCNADGFVRRTLRYDYWVQGTQVTVSS | high polyreactivity
18 | QVQLVESRGVLVQAGGSLRLSCAASGFTFYHYAMGWYRQAPGKDRELVAALDNGGSTYADSVKGRFTISRDNATNTVSLQRNSLKPEDTAVYYCAAVYLRYINGFYFWGQGTQVTVSS | low polyreactivity
19 | QVQLVESRRGLVQAGASLRLSCAASGSTFYGYGMGWYRQAPGKERELVAAITGSGDTTYYADSVKGRFTISRDNAKNTVYLQMNSLKPEDTAVYYCNARWHAEYDYWGQGTQVTVSS | low polyreactivity
20 | QVQLVESRRGLVQAGGSLRLSCAGSGRIVSDYAMGWYRQAPGKERELVATITSGDSTNYADSVKGRFTISRDNAKNTVYLQMNSQKPEDTAVYYCNADRFADYDYWGQGTQVTVSS | low polyreactivity
21 | QVQLVESRVGLVQAGGSLRLSCAASGIIFTLYAMGWYRQAPGKERELVAGIDASGGSTSYADSVKGRFTISRDNAKNTVYLQMNSLKPEVTAVYYCAARILPYGYDYWGQGTQVTVSS | low polyreactivity
22 | QVQLVESRWRFVQAGGSLRLSCAASGSIFADYAMGWYRQATGKERELVAAITFSGGSTYYADSVKGRFTISRDNENNTVYLQMNSLKPEDTAVYYCAARWRYRYYSWGQGTQVTVSS | high polyreactivity

Row | Sequence | polyreactivity (PSR sort gate)
23 | QVQLVESSGGLVQAGCSLRLSCAASGFTFGYYAMGWYRQAPGKERELVAAISRSGGRTYYADSVKGRFTISRDKAKNTVYLQMNSLNPEDTAVYYCAAWYVPGYLVDSDYWGQGTQVTVSS | high polyreactivity
24 | QVQLVESVAGLVQAGGSLRLSCAASGSIFRFYAMGWYRQAPGKERELVAGITWSGASTYYADSVKGRFTISRDNAKNTVYLQMNSLKPEDTAVYYCAKRYRLDGFYYWGQGTQVTVSS | high polyreactivity
25 | QVQLVESVGCLVQAGGSLRLICAASGSIFVDYAMGWYRQAPGKERELVAAISSGGGSTYYADSVKGRFTISRDNSKYTVYLQMNSLKPEDTAVYYCATDLQPRSFLYWYNYWGQGTQVTVSS | low polyreactivity
26 | QVQLVESVGCLVQAGGSLRLSCAASGNIITNNAMGWYRQAPGKERELVAAITRGGNTNYADSVKGRFTISRDNAKKTVYLQMKSLKPEDTAVFYCAADRYVELLGYFFEYDYWGQGTQVTVSS | low polyreactivity
27 | QVQLVESVGDLVQEGGSLRLSCAASGRIFYWYAMGWYRQAPGKETELVAAITSGGSTYYADSVKGRFTISRDNAKNTVYLQMNSLKPEDTAVYYCAKPFSSNSCSHGYWGQGTQVTVSS | low polyreactivity
28 | QVQLVESVGGLDQAGGSLRLRCAASGFIVGYYAMGWYRQAPGKEWEFVAAISWTGGNTYYADSVKGRFTISRDNAKNTVSLQLNSLKPEDTAVYYCNVVVSGYADRDGYNYWGQRTQVTVSS | high polyreactivity
29 | QVQLVESVGGLDQAGGSLRLSCAASGRIFRQNAMGWYRQAPGKERELVAAISRSGGSTYYADSVKGRFTISRDNAKNTVYLQMNSLKPEDTAVYYCNRDYQSQRTYPRRYDYCGQGTQVTVSS | low polyreactivity
30 | QVQLVESVGGLDQAGGSLRLSCAASGRTFYRNAMGLYRQAPGKERELVSAITGSGGSTYYADSVKGRFTISRDNAKNTVYLQMNSLKPEDTAVYYCAAGTRIYNSLIGFDYWGQGTQVTVSS | high polyreactivity
31 | QVQLVESVGGLVEAGGSLRLSCAASGSILGGYAMGWYLQAPGKESELVAAITSSGGRTYYADCVKGRFTMSRDNAKNTVYLQMNSLKPEDTAVYYCAARYSRWRYNYKDYAYWGQGTQVTVSS | high polyreactivity
32 | QVQLVESVGGLVKAGGSLRLSCAASGSTFRYYSMGWYRPAPGKERELVAGITTGGGRTYYADSVKGRFTISRDNAMNTVYLQMNSLKPEDTAVYSCAADRYSHYWYRNSYDYWGQGTQVTVSS | high polyreactivity
33 | QVQLVESVGGLVQAGASLRLSCAASGFTIDRYAMGWYIQAPAKERELVAAISGSGGRTYYADSVKGRFTISRDNAKNTVYLQMNSLKPEVTAVYYCAAVYLVTRGARYDYCGQGTQVTVSS | high polyreactivity
34 | QVQLVESVGGLVQAGASLRLSCAASGSIFGYNPMGWYRQAPGKERELVAVINASGASTYYADSVKGRFTISRDNAKNTVYLQMNSLKPEDTAVYYCAKDPFPFPGGDYWGQGTQVTVSS | low polyreactivity
35 | QVQLVESVGGLVQAGASLRLSCAASGSTFDYYAMGSYRQAPGKERELVAAISRTGGRTYYADSVKGRFTISRDNAKNTVYLQMNSLKPEDTAVYYCNAVTRIGGGDYDYWGQGTQVTVSS | low polyreactivity
36 | QVQLVESVGGLVQAGCSLRLSCAASGSIIRTNTMGWYRQAPGKEREFVAAISRSGGSTYYADSVKGRFTISRDNAKNTVYLQMNSLKPEDTAGYYCNARWGLGSYGYWGQGTQVTVSS | high polyreactivity
37 | QVQLVESVGGLVQAGDSLPLSCAPSAYIFRAYAMGWFRQAPGKASELVAAISSRGGSTYYADSVKGRFTISRDNATQTVYLQMNSLKPEDTAVYYCAAAYRQPYIGYGYWGQGTQVTVTS | high polyreactivity
38 | QVQLVESVGGLVQAGGILRLSCAASGSIFRSYAMGWYRQAPGKERELVAAIRSDGRTNYADSLKGRFTISRDNAKNTVYFPMNRLKPEDTAVYYCAAKAYYSYWRSMDYWGQGTQVTVSS | low polyreactivity
39 | QVQLVESVGGLVQAGGRLRLSCDASGFIFANYAMGWYRQATGKERELVAAITSGTGTNYADSVKGRFTISRDNAKNTVYLQMNSLKPEDTAVYYCAAYYTWLSEFGYWGQGTQVTVSS | low polyreactivity
40 | QVQLVESVGGLVQAGGSLLLSCAASGGIFWVYALGWYRQAPGKVRELVAAISYDTTSTYYADSVKGRFTISRDNAKNTVYLQMNRLKPEDTAVYYCNKTTLLTVEYDYGGQGTQVTVSS | low polyreactivity
41 | QVQLVESVGGLVQAGGSLPLSCAASGFTFSDYAMGWYRQAPGKESELVAGISSGGYTNYADSVKGRFTISRDNAKNTVYLQMNSLKPEDTAVYYCAAAYYSKFGYWGKGTQVTVSS | high polyreactivity
42 | QVQLVESVGGLVQAGGSLRISSAASGRTFERNTKGWYRQAPGKERELVAAITYDGGSTYYADSVKGRFTISRDNAKKTVYLKMNSLKPEDTAFYYCNAGGYEIYRSPFDYWGQGSQVTVSS | low polyreactivity
43 | QVQLVESVGGLVQAGGSLRLICAASGRTFRGYAMGWYRQAPGKERELVAAISSSGGRTYYADSVKGRFTISRDNAKNTVYLQMNSLKPEDTAVYYCAAAVTLSPAQYGYWGQGTQVTVSS | high polyreactivity
